Assays:
USP1(S313D) = biological target: T1, USP1(S313D) (human, UniProt O94782 1-785, G670A | G671A | S313D); test: cell-based or functional assay
T1 sequence (looked up): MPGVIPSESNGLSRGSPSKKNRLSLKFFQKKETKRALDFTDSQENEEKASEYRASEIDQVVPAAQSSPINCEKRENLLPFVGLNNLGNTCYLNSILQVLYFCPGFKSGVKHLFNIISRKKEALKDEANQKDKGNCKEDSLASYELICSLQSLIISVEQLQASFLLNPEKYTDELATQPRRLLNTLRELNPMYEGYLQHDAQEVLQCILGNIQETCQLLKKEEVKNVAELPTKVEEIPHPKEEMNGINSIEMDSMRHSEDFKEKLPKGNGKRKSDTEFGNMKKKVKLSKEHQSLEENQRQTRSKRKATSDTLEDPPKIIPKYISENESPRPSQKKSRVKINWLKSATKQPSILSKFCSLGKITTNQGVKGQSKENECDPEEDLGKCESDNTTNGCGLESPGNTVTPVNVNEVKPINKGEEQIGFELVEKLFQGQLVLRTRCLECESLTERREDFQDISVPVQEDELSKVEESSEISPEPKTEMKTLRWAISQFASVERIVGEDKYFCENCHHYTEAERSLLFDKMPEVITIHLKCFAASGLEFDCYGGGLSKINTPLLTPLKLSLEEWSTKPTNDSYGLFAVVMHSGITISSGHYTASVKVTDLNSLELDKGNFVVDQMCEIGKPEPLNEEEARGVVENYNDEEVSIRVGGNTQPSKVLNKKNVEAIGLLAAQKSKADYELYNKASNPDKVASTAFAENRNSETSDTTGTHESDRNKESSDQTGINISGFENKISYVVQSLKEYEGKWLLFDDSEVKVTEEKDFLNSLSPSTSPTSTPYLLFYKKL

USP1(S313A) = biological target: T2, USP1(S313A) (human, UniProt O94782 1-785, G670A | G671A | S313A); test: cell-based or functional assay
T2 sequence (looked up): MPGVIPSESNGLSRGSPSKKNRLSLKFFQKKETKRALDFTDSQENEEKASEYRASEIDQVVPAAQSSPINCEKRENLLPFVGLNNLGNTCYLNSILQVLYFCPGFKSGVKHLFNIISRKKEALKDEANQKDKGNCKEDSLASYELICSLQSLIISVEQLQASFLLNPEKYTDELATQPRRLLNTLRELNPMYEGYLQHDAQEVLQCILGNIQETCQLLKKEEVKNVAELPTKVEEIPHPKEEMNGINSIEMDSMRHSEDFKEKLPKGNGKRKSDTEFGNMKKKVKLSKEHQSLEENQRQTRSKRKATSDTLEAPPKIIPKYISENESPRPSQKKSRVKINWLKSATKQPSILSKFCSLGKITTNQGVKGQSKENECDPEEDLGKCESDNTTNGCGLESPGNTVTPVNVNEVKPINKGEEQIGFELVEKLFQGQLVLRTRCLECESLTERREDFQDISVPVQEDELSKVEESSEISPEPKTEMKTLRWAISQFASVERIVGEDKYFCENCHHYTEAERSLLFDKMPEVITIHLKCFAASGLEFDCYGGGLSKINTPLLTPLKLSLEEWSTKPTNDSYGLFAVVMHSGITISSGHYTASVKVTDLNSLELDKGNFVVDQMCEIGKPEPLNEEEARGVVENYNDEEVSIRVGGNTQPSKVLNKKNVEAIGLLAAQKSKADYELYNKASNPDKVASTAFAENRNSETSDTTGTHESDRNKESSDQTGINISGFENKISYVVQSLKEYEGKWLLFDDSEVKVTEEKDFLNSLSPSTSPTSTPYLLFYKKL

- kcat/Km of the copurified USP1(S313D)/UAF1 complex on Ub-AMC (USP1(S313D)): 250000 M⁻¹ s⁻¹
- kcat/Km of USP1(S313A) purified together with His-tagged UAF1, on Ub-AMC (USP1(S313A)): 1100 M⁻¹ s⁻¹
B1: UAF1 (USP1-associated factor 1), six-His-tagged, N-terminally HA-tagged (natural protein)
chain: not shown

From PMC3617561 (Biochemistry, 2012)
